# Tests used:
# [1] = target: WNV IS98-ST1 M-I36F/A43G double mutant virions (E protein at the surface, M protein I36F and A43G) (West Nile virus, strain IS98-ST1); assay: direct ELISA, coated UV-inactivated virus produced in Vero cells
# [2] = target: WNV IS98-ST1 M-I36F/A43G double mutant virions (E protein at the surface, M protein I36F and A43G) (West Nile virus, strain IS98-ST1); assay: indirect non-competitive ELISA, Vero-produced virus captured by polyclonal anti-WNV, HRP-conjugated 4G2
substance,measurement,setting,value
Monoclonal antibody (mAb) 4G2 anti-Flavivirus E protein,fold decrease in recognition compared to wild-type and M-A43G,[1],1.2 fold
same,fold decrease in recognition,[2],1.2 to 2 fold
